Laboratory results as given in US20250326828A1 (STAIDSON BEIJING BIOPHARMACEUTICALS, published 2025).
Where two headings read alike, the source gives them in different places.

T1: human GDF15-his (human)
T1 construct: Recombinant His-tagged fusion protein expressed in 293F cells
T1 chain: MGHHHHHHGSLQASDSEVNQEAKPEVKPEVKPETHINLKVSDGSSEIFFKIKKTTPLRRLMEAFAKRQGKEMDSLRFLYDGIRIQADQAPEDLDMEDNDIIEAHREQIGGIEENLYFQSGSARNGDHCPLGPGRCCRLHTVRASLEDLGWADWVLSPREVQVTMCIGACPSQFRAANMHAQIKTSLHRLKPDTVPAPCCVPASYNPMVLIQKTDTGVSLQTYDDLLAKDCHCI

T2: human GDF15-hFc (human)
T2 construct: Recombinant hFc-tagged fusion protein expressed in 293F cells
T2 chain: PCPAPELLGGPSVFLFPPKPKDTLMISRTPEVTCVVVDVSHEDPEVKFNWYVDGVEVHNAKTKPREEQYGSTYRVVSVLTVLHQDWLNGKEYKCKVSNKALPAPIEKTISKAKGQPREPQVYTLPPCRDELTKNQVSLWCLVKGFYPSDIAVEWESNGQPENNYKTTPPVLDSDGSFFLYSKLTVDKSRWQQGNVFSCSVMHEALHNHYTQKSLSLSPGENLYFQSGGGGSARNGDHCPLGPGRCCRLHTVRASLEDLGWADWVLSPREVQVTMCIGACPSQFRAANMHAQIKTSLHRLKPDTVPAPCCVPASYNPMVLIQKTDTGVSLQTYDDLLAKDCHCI

T3: rhesus monkey GDF15-hFc (rhesus monkey)
T3 chain: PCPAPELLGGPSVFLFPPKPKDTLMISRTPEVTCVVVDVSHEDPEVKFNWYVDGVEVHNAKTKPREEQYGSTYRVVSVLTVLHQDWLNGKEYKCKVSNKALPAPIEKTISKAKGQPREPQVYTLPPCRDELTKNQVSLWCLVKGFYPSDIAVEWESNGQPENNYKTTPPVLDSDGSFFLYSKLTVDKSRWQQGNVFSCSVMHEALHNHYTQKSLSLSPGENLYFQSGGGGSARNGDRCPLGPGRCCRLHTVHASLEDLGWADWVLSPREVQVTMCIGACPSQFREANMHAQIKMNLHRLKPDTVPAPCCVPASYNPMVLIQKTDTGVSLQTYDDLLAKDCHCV

T4: mouse GDF15-hFc (mouse)
T4 chain: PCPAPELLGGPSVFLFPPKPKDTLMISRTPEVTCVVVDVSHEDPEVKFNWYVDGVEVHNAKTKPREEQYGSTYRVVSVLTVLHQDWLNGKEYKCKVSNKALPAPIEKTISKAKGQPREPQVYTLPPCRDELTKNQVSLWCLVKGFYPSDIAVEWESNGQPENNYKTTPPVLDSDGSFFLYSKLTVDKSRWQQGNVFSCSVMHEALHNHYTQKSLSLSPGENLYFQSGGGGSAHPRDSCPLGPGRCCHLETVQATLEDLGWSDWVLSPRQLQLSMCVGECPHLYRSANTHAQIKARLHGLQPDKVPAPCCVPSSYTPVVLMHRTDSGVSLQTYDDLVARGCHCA


Key:
human GDF15-his [1] = molecular target: T1, human GDF15-his; experiment: ELISA; antibody coated, human GDF15-his titrated, anti-his-HRP detection
Description: (§1) ELISA binding assay: The purified monoclonal antibody was subjected to a binding assay with human GDF15-his protein. The binding assay was designed to characterize the binding activity of the anti-GDF15 antibody. Briefly, a 96-well plate was coated with anti-GDF15 antibody (200 ng/well) and incubated for 1 hour at 37° C. The plates were washed with PBST and then blocked for 1 hour at room temperature using 1% BSA. Then 100 µl/well of gradient-diluted human GDF15-his solution (dose range 0-50 μg/ml) was added into plates. After incubation, 100 μl of anti-his tag secondary antibody (anti-his-HRP (1:2000), Bersee, cat #BHR790) was added to each well. Finally, the TMB solution (100 μl/well) was added. 2M H₂SO₄ was used to stop the reaction. The OD450 was measured, and the binding curves were generated by PRISM software to analyze the affinity of candidate antibodies to human GDF15 antigen, and EC₅₀ value were calculated.

human GDF15-hFc [2] = molecular target: T2, human GDF15-hFc; experiment: competition ELISA; GFRAL-his coated, antibody titrated against human GDF15-hFc, anti-human IgG-HRP detection
Description: (§2) The ELISA assay was performed to measure the inhibitory activity of anti-GDF15 antibodies in concentration gradients to block GDF15 binding to GFRAL receptor. IC₅₀ values were used as a measure for neutralizing activity of candidate molecules. Briefly, 96-well plates were coated with 100 ng/well of GFRAL-his protein (SEQ ID NO: 74), and incubated for 1 h at 37° C. The plates were washed with PBST and then blocked for 1 hour at 37° C. with 1% BSA. Gradient-diluted antibodies (dose range 0˜10 μg/ml) was added into each well, immediately followed by equal volume of human GDF15-hFc protein ([…]). After incubation and washing, 100 μl of anti-human IgG secondary antibody (goat anti-human IgG-HRP, Sigma, A8667) was added to each well. Finally, TMB solution (100 μl/well) was added. 2M H₂SO₄ was used to stop the reaction. The OD450 was measured and the binding curve was generated by PRISM to calculate the IC₅₀ value.

human GDF15-his [3] = molecular target: T1, human GDF15-his; experiment: cell-based or functional assay
human GDF15-hFc [4] = molecular target: T2, human GDF15-hFc; experiment: competition ELISA as in Example 2; GFRAL-his coated, antibody titrated against human GDF15-hFc
Description: as §2

human GDF15-his [5] = molecular target: T1, human GDF15-his; experiment: ELISA as in Example 2: plate coated with the antibody, graded human GDF15-his, anti-his-HRP, OD450; the sheet's x axis reads 'Log GDF15 Antibody (nM)'
Description: as §1

human GDF15-hFc [6] = molecular target: T2, human GDF15-hFc; experiment: SPR, Biacore 8K; antibody on CM5 chip
Description: (§3) The binding affinity of anti-GDF15 antibodies for human GDF15, rhesus monkey GDF15, mouse GDF15 were characterized using Biacore 8K (GE). The anti-GDF15 antibodies were stabilized on sensor chip CM5. The binding affinity of antibody for GDF15 proteins from different species at various concentrations was measured. Using the SPR technology, the association and dissociation rates were measured, and binding affinity was determined.

rhesus monkey GDF15-hFc = molecular target: T3, rhesus monkey GDF15-hFc; experiment: SPR, Biacore 8K; antibody on CM5 chip
Description: as §3

mouse GDF15-hFc = molecular target: T4, mouse GDF15-hFc; experiment: SPR, Biacore 8K; antibody on CM5 chip
Description: as §3

human GDF15-his [7] = molecular target: T1, human GDF15-his; experiment: cell-based or functional assay
human GDF15-his [8] = molecular target: T1, human GDF15-his; experiment: ELISA as in Example 2: plate coated with the antibody, graded human GDF15-his, anti-his-HRP, OD450; the sheet's x axis reads 'Log GDF15 antibody (nM)'
Description: as §1

human GDF15-his [9] = molecular target: T1, human GDF15-his; experiment: cell-based or functional assay

| IC50 (human GDF15-hFc [4]) | EC50 (read off the curve) (human GDF15-his [5]) | IC50 (read off the curve), SRE-luciferase signal in 293T-GFRAL/RET-Luc cells with human GDF15-his (human GDF15-his [7]) | EC50 (read off the curve) (human GDF15-his [8]) | Binder | further results |
| --- | --- | --- | --- | --- | --- |
| – | – | – | – | GDF-R31-rabIg1 (antibody, V domains shown, Full-length rabbit antibody: rabbit IgG1 heavy constant (pTTa1-rab Ig1-H) and rabbit light constant (pTTa1-rab-CLB4); also called GDF15-R31-rabIg1) VH: QQLKESGGRLVTPGTPLTLTCTVSGFSLSDYYMSWVRQAPGKGLEWIGDIYGGSGTTDYASWVKGRFTISKTSTTVDLRIASPTTEDTATYFCGRGITADIWGPGTLVTVSL VL: DIVLTQTPASVEAAVGGTVTIKCQASQSISSYLAWYQQKPGQPPKLLIYKASTLASGVPSRFKGSGSGTEFTLTISDLECADAATYYCRCIYGDSYGAAFGGGTEVVVQ | EC50 (human GDF15-his [1]): 66.5 nM; IC50 (human GDF15-hFc [2]): 2.28 nM |
| 2.31 nM | ~80 nM | – | – | hum_R37-7 (antibody, V domains shown, Tested in human IgG1 format) VH: EVQLVESGGGLVKPGGSLRLSCAASGFSLSNYYMSWVRQAPGKGLEWIGMISFSGTTYATWAKGRFTISKDSSKNTVYLQINSLKTEDTAVYFCARVVYAGWTYPLGIWGQGTLVTVSS VL: DIQMTQSPSSLSASVGDRVTITCQASQSISSVLSWYQQKPGKPPKALIYEASILASGVPSRFSGSGSGTDFTLTISSLQPEDFATYYCQANYDVYNYGNPFGGGTKVEIK | IC50 (read off the curve), SRE-luciferase signal in 293T-GFRAL/RET-Luc cells with human GDF15-his (human GDF15-his [3]): ~0.1 nM |
| 1.59 nM | ~80 nM | – | – | hum_R37-8 (antibody, V domains shown, Tested in human IgG1 format) VH: EVQLVESGGGLVKPGGSLRLSCAASGFSLSNYYMSWVRQAPGKGLEWIGMISFSGTTYATWAKGRFTISKDSSTVYLQINSLKTEDTAVYFCARVVYAGWTYPLGIWGQGTLVTVSS VL: DIQMTQSPSSLSASVGDRVTITCQASQSISSVLSWYQQKPGKPPKALIYEASILASGVPSRFSGSGSGTDFTLTISSLQPEDFATYYCQANYDVYNYGNPFGGGTKVEIK | IC50 (read off the curve), SRE-luciferase signal in 293T-GFRAL/RET-Luc cells with human GDF15-his (human GDF15-his [3]): ~0.1 nM; Kd (human GDF15-hFc [6]): 0.607 nM; koff (human GDF15-hFc [6]): 8.46e-05 s⁻¹; kon (human GDF15-hFc [6]): 139000 M⁻¹ s⁻¹; Kd (rhesus monkey GDF15-hFc): 1.09 nM; koff (rhesus monkey GDF15-hFc): 0.002 s⁻¹; kon (rhesus monkey GDF15-hFc): 1.84e+06 M⁻¹ s⁻¹; Kd (mouse GDF15-hFc): 101 nM; koff (mouse GDF15-hFc): 0.0017 s⁻¹; kon (mouse GDF15-hFc): 16800 M⁻¹ s⁻¹ |
| 1.51 nM | – | ~0.2 nM | ~200 nM | hum_R37-14 (antibody, V domains shown, Tested in human IgG1 format) VH: EVQLVESGGGLVKPGGSLRLSCAASGFSLSNYYMSWVRQAPGKGLEWIGMISFSGTTYATWAKGRFTISKDSSTVYLQINSLKTEDTAVYFCARVVYAGWTYPLGIWGQGTLVTVSS VL: DIQMTQSPSSLSASVGDRVTITCQASQSISSVLSWYQQKPGKPPKLLIYEASILASGVPSRFSGSGSGTDFTLTISSLQPEDFATYYCQANYDVYNYGNPFGGGTKVEIK | – |
| 1.82 nM | ~80 nM | ~0.2 nM | – | hum_R37-9 (antibody, V domains shown, Tested in human IgG1 format) VH: EVQLVESGGGLVKPGGSLRLSCAASGFSLSNYYMSWVRQAPGKGLEWIGMISFSGTTYATWAKGRFTISKDDSKNTVYLQINSLKTEDTAVYFCARVVYAGWTYPLGIWGQGTLVTVSS VL: DIQMTQSPSSLSASVGDRVTITCQASQSISSVLSWYQQKPGKPPKALIYEASILASGVPSRFSGSGSGTDFTLTISSLQPEDFATYYCQANYDVYNYGNPFGGGTKVEIK | – |
| 1.9 nM | ~80 nM | ~0.1 nM | – | hum_R37-11 (antibody, V domains shown, Tested in human IgG1 format) VH: EVQLVESGGGLVKPGGSLRLSCAASGFSLSNYYMSWVRQAPGKGLEWVGMISFSGTTYATWAKGRFTISRDDSKNTVYLQINSLKTEDTAVYFCARVVYAGWTYPLGIWGQGTLVTVSS VL: DIQMTQSPSSLSASVGDRVTITCQASQSISSVLSWYQQKPGKPPKALIYEASILASGVPSRFSGSGSGTDFTLTISSLQPEDFATYYCQANYDVYNYGNPFGGGTKVEIK | – |
| 2.06 nM | – | ~0.1 nM | ~200 nM | hum_R37-13 (antibody, V domains shown, Tested in human IgG1 format) VH: EVQLVESGGGLVKPGGSLRLSCAASGFSLSNYYMSWVRQAPGKGLEWIGMISFSGTTYATWAKGRFTISKDSSKNTVYLQINSLKTEDTAVYFCARVVYAGWTYPLGIWGQGTLVTVSS VL: DIQMTQSPSSLSASVGDRVTITCQASQSISSVLSWYQQKPGKPPKLLIYEASILASGVPSRFSGSGSGTDFTLTISSLQPEDFATYYCQANYDVYNYGNPFGGGTKVEIK | – |
| 0.88 nM | – | ~0.2 nM | ~200 nM | hum_R37-18 (antibody, V domains shown, Tested in human IgG1 format) VH: EVQLVESGGGLVKPGGSLRLSCAASGFSLSNYYMSWVRQAPGKGLEWVGMISFSGTTYATWAKGRFTISRDDSKNTLYLQMNSLKTEDTAVYFCARVVYAGWTYPLGIWGQGTLVTVSS VL: DIQMTQSPSSLSASVGDRVTITCQASQSISSVLSWYQQKPGKPPKLLIYEASILASGVPSRFSGSGSGTDFTLTISSLQPEDFATYYCQANYDVYNYGNPFGGGTKVEIK | – |
| 1.59 nM | – | ~0.2 nM | ~200 nM | hum_R37-15 (antibody, V domains shown, Tested in human IgG1 format) VH: EVQLVESGGGLVKPGGSLRLSCAASGFSLSNYYMSWVRQAPGKGLEWIGMISFSGTTYATWAKGRFTISKDDSKNTVYLQINSLKTEDTAVYFCARVVYAGWTYPLGIWGQGTLVTVSS VL: DIQMTQSPSSLSASVGDRVTITCQASQSISSVLSWYQQKPGKPPKLLIYEASILASGVPSRFSGSGSGTDFTLTISSLQPEDFATYYCQANYDVYNYGNPFGGGTKVEIK | – |
| – | – | – | – | GDF-R36-rabIg1 (antibody, V domains shown, Full-length rabbit antibody: rabbit IgG1 heavy constant and rabbit light constant; also called GDF15-R36-rabIg1) VH: QSLEESGGRLVTPGTPLTLTCTASGFSLSNYYMSWVRQAPGEGLEWIGMISFSGTTYATWAKGRFTISKTSTTVDLKITSPTTEDTATYFCARVVYAGWTYPLGIWGPGTLVTVSS VL: DPVLTQTPASVSEPVGGTVTIKCQASQSISSVLSWYQQKPGQPPKVLIYEASTLASGVPSRFKGSGSGTDFTLTISDLECADAATYYCQANYDVYNYGNPFGGGTEVVVK | IC50, 293T-GFRAL/RET-Luc SRE luciferase reporter cells stimulated with human GDF15-his (15 ng/ml) (human GDF15-his [9]): 0.17 nM; EC50 (human GDF15-his [1]): 44.4 nM; IC50 (human GDF15-hFc [2]): 1.44 nM |
